The test concerns the target T1, pBIND-IκBα (GAL4 DNA-binding domain fusion of IκBα) (UniProt P25963 1-317).
T1 construct: source: HEK293T, transfected, mammalian two-hybrid fusion
T1 sequence (looked up): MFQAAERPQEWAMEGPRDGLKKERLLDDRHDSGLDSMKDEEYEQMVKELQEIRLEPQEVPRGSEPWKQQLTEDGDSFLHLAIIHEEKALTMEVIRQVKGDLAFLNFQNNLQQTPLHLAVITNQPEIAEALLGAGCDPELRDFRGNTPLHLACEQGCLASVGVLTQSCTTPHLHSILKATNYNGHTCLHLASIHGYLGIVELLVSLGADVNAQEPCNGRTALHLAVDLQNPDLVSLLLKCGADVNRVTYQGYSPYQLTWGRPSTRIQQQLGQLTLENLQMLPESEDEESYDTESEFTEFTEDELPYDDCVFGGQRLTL
Description: two-hybrid; mammalian two-hybrid (CheckMate, Promega) in HEK293T: pBIND-IκBα (GAL4), pACT-RSK3 (VP16), pG5luc; firefly luciferase normalised to renilla, 24 h after transfection; also with RSK3I added 4 h after transfection. The conditions noted are these: partners not purified.

B1: pACT-RSK3 (VP16 activation domain fusion of RSK3) (natural protein, UniProt Q15349 1-733, looked up)
chain: MDLSMKKFAVRRFFSVYLRRKSRSKSSSLSRLEEEGVVKEIDISHHVKEGFEKADPSQFELLKVLGQGSYGKVFLVRKVKGSDAGQLYAMKVLKKATLKVRDRVRSKMERDILAEVNHPFIVKLHYAFQTEGKLYLILDFLRGGDLFTRLSKEVMFTEEDVKFYLAELALALDHLHSLGIIYRDLKPENILLDEEGHIKITDFGLSKEAIDHDKRAYSFCGTIEYMAPEVVNRRGHTQSADWWSFGVLMFEMLTGSLPFQGKDRKETMALILKAKLGMPQFLSGEAQSLLRALFKRNPCNRLGAGIDGVEEIKRHPFFVTIDWNTLYRKEIKPPFKPAVGRPEDTFHFDPEFTARTPTDSPGVPPSANAHHLFRGFSFVASSLIQEPSQQDLHKVPVHPIVQQLHGNNIHFTDGYEIKEDIGVGSYSVCKRCVHKATDTEYAVKIIDKSKRDPSEEIEILLRYGQHPNIITLKDVYDDGKFVYLVMELMRGGELLDRILRQRYFSEREASDVLCTITKTMDYLHSQGVVHRDLKPSNILYRDESGSPESIRVCDFGFAKQLRAGNGLLMTPCYTANFVAPEVLKRQGYDAACDIWSLGILLYTMLAGFTPFANGPDDTPEEILARIGSGKYALSGGNWDSISDAAKDVVSKMLHVDPHQRLTAMQVLKHPWVVNREYLSPNQLSRQDVHLVKGAMAATYFALNRTPQAPRLEPVLSSNLAQRRGMKRLTSTRL
notes: RSK3 (RPS6KA2) cloned into pACT; source: HEK293T, transfected, mammalian two-hybrid fusion
For B1, the “fold luciferase activity over the pBind-IκBα vector-only control” value is approximately 3 fold.
